Assays:
CcrM [1] = biological target: T1, CcrM (Caulobacter crescentus, UniProt P0CAW2 1-358); assay: X-ray crystallography (2.34 A); sinefungin; Co-crystallization: protein stock in 20 mM HEPES pH 8.0, 300 mM NaCl, 5% glycerol, 0.5 mM TCEP; ~1:1 monomer:duplex (~56 uM), 5x sinefungin; well 0.1 M HEPES pH 7.8, 10% PEG 8000, 3% PEG 6000; 19 C; conditions: protein: recombinant; tags: N-terminal His-tag; chain copies: 2; 5' overhang 1 nt on each strand (C and G), 18 bp
CcrM [2] = biological target: T1, CcrM; assay: X-ray crystallography (2.7 A); sinefungin; Co-crystallization: protein stock in 20 mM HEPES pH 8.0, 300 mM NaCl, 5% glycerol, 0.5 mM TCEP; ~1:1 monomer:duplex (~56 uM), 5x sinefungin; well 0.1 M HEPES pH 7.8, 10% PEG 8000, 3% PEG 6000; 19 C; conditions: protein: recombinant; tags: N-terminal His-tag; chain copies: 2; 5' overhang 1 nt on each strand, 18 bp

T1 sequence (P0CAW2 whole entry): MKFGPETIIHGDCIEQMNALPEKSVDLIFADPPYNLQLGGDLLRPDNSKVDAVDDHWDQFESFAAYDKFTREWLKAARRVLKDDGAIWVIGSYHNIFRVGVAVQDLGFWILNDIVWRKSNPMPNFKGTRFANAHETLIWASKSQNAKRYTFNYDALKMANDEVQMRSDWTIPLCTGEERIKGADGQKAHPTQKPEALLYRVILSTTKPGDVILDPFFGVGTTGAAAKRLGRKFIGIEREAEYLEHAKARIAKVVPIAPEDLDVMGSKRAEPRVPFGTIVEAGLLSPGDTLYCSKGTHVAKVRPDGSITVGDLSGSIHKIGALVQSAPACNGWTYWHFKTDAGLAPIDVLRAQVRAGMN

Binder | binding result (CcrM [1]) | binding result (CcrM [2])
GAATC 18-bp duplex with 1-nt overhangs (dsDNA) DNA 1: CGATTCAATGAATCCCAAG DNA 2: GCTTGGGATTCATTGAATC | binds | –
Hemimethylated GAATC duplex (dsDNA, N6-methyladenine (printed M) at position 8 of strand 2 (GATTC, non-target strand)) DNA 1: CGATTCAATGAATCCCAAG DNA 2: GCTTGGGATTCATTGAATC | – | binds

From publication PMC6787082, “The cell cycle-regulated DNA adenine methyltransferase CcrM opens a bubble at its DNA recognition site”
